# Measured values from article PMC4737156, “Taking a molecular motor for a spin: helicase mechanism studied by spin labeling and PELDOR”.
# Residue numbers refer to the chain shown, from its start.
# T1: PcrA E74C/Q506C-R1 (1A-2B) (Bacillus stearothermophilus, UniProt P56255 1-724, E74C;Q506C)
# T1 sequence: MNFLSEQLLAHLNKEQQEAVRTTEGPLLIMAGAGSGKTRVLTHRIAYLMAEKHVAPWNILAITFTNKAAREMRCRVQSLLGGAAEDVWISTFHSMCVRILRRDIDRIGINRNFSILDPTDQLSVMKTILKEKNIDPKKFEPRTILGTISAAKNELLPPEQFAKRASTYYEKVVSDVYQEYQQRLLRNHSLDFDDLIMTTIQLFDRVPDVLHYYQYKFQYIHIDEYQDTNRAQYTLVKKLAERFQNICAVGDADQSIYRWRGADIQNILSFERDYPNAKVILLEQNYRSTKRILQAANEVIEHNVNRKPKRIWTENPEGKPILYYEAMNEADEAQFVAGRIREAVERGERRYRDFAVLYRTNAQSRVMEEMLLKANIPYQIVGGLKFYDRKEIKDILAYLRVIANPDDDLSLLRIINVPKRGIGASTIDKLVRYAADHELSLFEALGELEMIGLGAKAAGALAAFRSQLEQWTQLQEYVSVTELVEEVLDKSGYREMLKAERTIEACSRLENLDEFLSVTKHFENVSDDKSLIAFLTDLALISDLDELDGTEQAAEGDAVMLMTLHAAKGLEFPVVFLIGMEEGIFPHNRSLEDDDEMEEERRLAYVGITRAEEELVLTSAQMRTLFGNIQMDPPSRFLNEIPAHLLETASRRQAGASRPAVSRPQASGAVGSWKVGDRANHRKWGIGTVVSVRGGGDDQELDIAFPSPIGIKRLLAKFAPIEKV
# T2: PcrA V344C/Q506C-R1 (2A-2B) (Bacillus stearothermophilus, UniProt P56255 1-724, V344C;Q506C)
# T2 sequence: T1 sequence with C74E, V344C
# Tests used:
# [1] = target: T1, PcrA E74C/Q506C-R1 (1A-2B); experiment: PELDOR (DEER) EPR; no nucleotide; distances 35 and 45 A (0.5:1); PELDOR in D2O buffer (composition, pH not given in material): PcrA 70 uM, DNA 150 uM, nucleotide 10-fold excess, 1 mM MgCl2, 5% EG-d6; XPD 40-50 uM, DNA about 2x, nucleotide/MgCl2 1 mM; settings: protein: recombinant; tags: none stated; hairpin, 11 bp duplex, 3' overhang 10 nt
# [2] = target: T2, PcrA V344C/Q506C-R1 (2A-2B); experiment: PELDOR (DEER) EPR; no nucleotide; distances 37.3 and 44.1 A (1:0.7); PELDOR in D2O buffer (composition, pH not given in material): PcrA 70 uM, DNA 150 uM, nucleotide 10-fold excess, 1 mM MgCl2, 5% EG-d6; XPD 40-50 uM, DNA about 2x, nucleotide/MgCl2 1 mM; settings: protein: recombinant; tags: none stated; hairpin, 11 bp duplex, 3' overhang 10 nt
binder,measurement,setting,value
CGAGCACTGCTTTAGCAGTGCTCGTTTTTTTTTT (structured_DNA) [hairpin with 3'-(dT)10 overhang],binding result,[1],binds
same,binding result,[2],binds
